Test results as given in patent publication US11795460B2, “Compositions and methods for TTR gene editing and treating ATTR amyloidosis” (Intellia Therapeutics, Inc., priority 2017, dated 2023).
Strand notation (5' to 3'): a small letter for the sugar, then the base; units joined by * are phosphorothioate-linked, units joined directly phosphodiester-linked; [ ] holds rarer units or linkages, { } end groups; capitals alone tell only the bases. m = 2'-O-methyl; r = 2'-OH (RNA)

B1: G000488: TTR sgRNA modified sequence, Human, SEQ ID No. 95; guide sequence of CR003346 (nucleic acid)
guide: mA*mA*mA*rGrUrUrCrUrArGrArUrGrCrUrGrUrCrCrGrGrUrUrUrUrArGrAmGmCmUmAmGmAmAmAmUmAmGmCrArArGrUrUrArArArArUrArArGrGrCrUrArGrUrCrCrGrUrUrArUrCrAmAmCmUmUmGmAmAmAmAmAmGmUmGmGmCmAmCmCmGmAmGmUmCmGmGmUmGmCmU*mU*mU*mU
B2: G000571: TTR sgRNA modified sequence, Human, SEQ ID No. 112; guide sequence of CR005301 (nucleic acid)
guide: mG*mU*mC*rArCrArGrArArArCrArCrUrCrArCrCrGrUrGrUrUrUrUrArGrAmGmCmUmAmGmAmAmAmUmAmGmCrArArGrUrUrArArArArUrArArGrGrCrUrArGrUrCrCrGrUrUrArUrCrAmAmCmUmUmGmAmAmAmAmAmGmUmGmGmCmAmCmCmGmAmGmUmCmGmGmUmGmCmU*mU*mU*mU
B3: G000499: TTR sgRNA modified sequence, Human, SEQ ID No. 106; guide sequence of CR005303 (nucleic acid)
guide: mU*mG*mA*rArUrCrCrArArGrUrGrUrCrCrUrCrUrGrArGrUrUrUrUrArGrAmGmCmUmAmGmAmAmAmUmAmGmCrArArGrUrUrArArArArUrArArGrGrCrUrArGrUrCrCrGrUrUrArUrCrAmAmCmUmUmGmAmAmAmAmAmGmUmGmGmCmAmCmCmGmAmGmUmCmGmGmUmGmCmU*mU*mU*mU
B4: G000480: TTR sgRNA modified sequence, Human, SEQ ID No. 87; guide sequence of CR003353 (nucleic acid)
guide: mA*mA*mA*rGrGrCrUrGrCrUrGrArUrGrArCrArCrCrUrGrUrUrUrUrArGrAmGmCmUmAmGmAmAmAmUmAmGmCrArArGrUrUrArArArArUrArArGrGrCrUrArGrUrCrCrGrUrUrArUrCrAmAmCmUmUmGmAmAmAmAmAmGmUmGmGmCmAmCmCmGmAmGmUmCmGmGmUmGmCmU*mU*mU*mU
B5: G000489: TTR sgRNA modified sequence, Human, SEQ ID No. 96; guide sequence of CR003344 (nucleic acid)
guide: mU*mU*mU*rGrArCrCrArUrCrArGrArGrGrArCrArCrUrGrUrUrUrUrArGrAmGmCmUmAmGmAmAmAmUmAmGmCrArArGrUrUrArArArArUrArArGrGrCrUrArGrUrCrCrGrUrUrArUrCrAmAmCmUmUmGmAmAmAmAmAmGmUmGmGmCmAmCmCmGmAmGmUmCmGmGmUmGmCmU*mU*mU*mU
B6: G000572: TTR sgRNA modified sequence, Human, SEQ ID No. 113; guide sequence of CR003385 (nucleic acid)
guide: mC*mC*mC*rCrUrArCrUrCrCrUrArUrUrCrCrArCrCrArGrUrUrUrUrArGrAmGmCmUmAmGmAmAmAmUmAmGmCrArArGrUrUrArArArArUrArArGrGrCrUrArGrUrCrCrGrUrUrArUrCrAmAmCmUmUmGmAmAmAmAmAmGmUmGmGmCmAmCmCmGmAmGmUmCmGmGmUmGmCmU*mU*mU*mU
B7: G000570: TTR sgRNA modified sequence, Human, SEQ ID No. 111; guide sequence of CR003347 (nucleic acid)
guide: mC*mA*mU*rUrGrArUrGrGrCrArGrGrArCrUrGrCrCrUrGrUrUrUrUrArGrAmGmCmUmAmGmAmAmAmUmAmGmCrArArGrUrUrArArArArUrArArGrGrCrUrArGrUrCrCrGrUrUrArUrCrAmAmCmUmUmGmAmAmAmAmAmGmUmGmGmCmAmCmCmGmAmGmUmCmGmGmUmGmCmU*mU*mU*mU
B8: G000568: TTR sgRNA modified sequence, Human, SEQ ID No. 110; guide sequence of CR003391 (nucleic acid)
guide: mG*mG*mC*rUrGrUrCrGrUrCrArCrCrArArUrCrCrCrArGrUrUrUrUrArGrAmGmCmUmAmGmAmAmAmUmAmGmCrArArGrUrUrArArArArUrArArGrGrCrUrArGrUrCrCrGrUrUrArUrCrAmAmCmUmUmGmAmAmAmAmAmGmUmGmGmCmAmCmCmGmAmGmUmCmGmGmUmGmCmU*mU*mU*mU
B9: G000494: TTR sgRNA modified sequence, Human, SEQ ID No. 101; guide sequence of CR003360 (nucleic acid)
guide: mG*mU*mG*rArGrUrCrUrGrGrArGrArGrCrUrGrCrArUrGrUrUrUrUrArGrAmGmCmUmAmGmAmAmAmUmAmGmCrArArGrUrUrArArArArUrArArGrGrCrUrArGrUrCrCrGrUrUrArUrCrAmAmCmUmUmGmAmAmAmAmAmGmUmGmGmCmAmCmCmGmAmGmUmCmGmGmUmGmCmU*mU*mU*mU
B10: G000567: TTR sgRNA modified sequence, Human, SEQ ID No. 109; guide sequence of CR003352 (nucleic acid)
guide: mG*mA*mA*rArGrGrCrUrGrCrUrGrArUrGrArCrArCrCrGrUrUrUrUrArGrAmGmCmUmAmGmAmAmAmUmAmGmCrArArGrUrUrArArArArUrArArGrGrCrUrArGrUrCrCrGrUrUrArUrCrAmAmCmUmUmGmAmAmAmAmAmGmUmGmGmCmAmCmCmGmAmGmUmCmGmGmUmGmCmU*mU*mU*mU

Experiments:
Assay type in all cases: cell-based
[1] = tested on: TTR; test: TTR editing in primary human hepatocytes transfected with Spy Cas9 protein and sgRNAs (Table 12); settings: primary human hepatocytes transfected with Spy Cas9 protein (RNP) and sgRNAs
Protocol: (§1) Primary liver hepatocytes. Primary human liver hepatocytes (PHH) and primary cynomolgus liver hepatocytes (PCH) (Gibco) were cultured per the manufacturer's protocol (Invitrogen, protocol 11.28.2012). In brief, the cells were thawed and resuspended in hepatocyte thawing medium with supplements (Gibco, Cat. CM7000) followed by centrifugation at 100 g for 10 minutes for human and 80 g for 4 minutes for cyno. The supernatant was discarded and the pelleted cells resuspended in hepatocyte plating medium plus supplement pack (Invitrogen, Cat. A1217601 and CM3000). Cells were counted and plated on Bio-coat collagen I coated 96-well plates (ThermoFisher, Cat. 877272) at a density of 33,000 cells/well for human or 60,000 cells/well for cyno (or 65,000 cells/well when assaying effects on TTR protein, described further below). Plated cells were allowed to settle and adhere for 6 or 24 hours in a tissue culture incubator at 37° C. and 5% CO2 atmosphere. After incubation cells were checked for monolayer formation and media was replaced with hepatocyte culture medium with serum-free supplement pack (Invitrogen, Cat. A1217601 and CM4000).
[…] formation was performed prior to electroporation or transfection of Spy Cas9 protein loaded with guide RNAs (RNPs) onto cells. For dual guide (dgRNAs), individual crRNA and trRNA was pre-annealed by mixing equivalent amounts of reagent and incubating at 95° C. for 2 min and cooling to room temperature. Single guide (sgRNAs) were boiled at 95° C. for 2 min and cooling to room temperature. The boiled dgRNA or sgRNA was incubated with Spy Cas9 protein in Optimem for 10 minutes at room temperature to form a ribonucleoprotein (RNP) complex.
For RNP lipoplex transfections, cells were transfected with Lipofectamine RNAiMAX (ThermoFisher, Cat. 13778150) per the manufacturer's protocol. Cells were transfected with an RNP containing Spy Cas9 (10 nM), individual guide (10 nM), tracer RNA (10 nM), Lipofectamine RNAiMAX (1.0 μL/well) and OptiMem. RNP formation was performed as described above.
Transfected cells were harvested post-transfection at 24, 48, or 72 hours. The genomic DNA was extracted from each well of a 96-well plate using 50 μL/well BuccalAmp DNA Extraction solution (Epicentre, Cat. QE09050) per manufacturer's protocol. All DNA samples were subjected to PCR and subsequent NGS analyses, as described herein.
(§2) To quantitatively determine the efficiency of editing at the target location in the genome, sequencing was utilized to identify the presence of insertions and deletions introduced by gene editing.
(§3) Primers were designed around the target site within the gene of interest (e.g. TTR), and the genomic area of interest was amplified.
(§4) Additional PCR was performed per the manufacturer's protocols (Illumina) to add chemistry for sequencing. The amplicons were sequenced on an Illumina MiSeq instrument. The reads were aligned to a reference genome (e.g., the human reference genome (hg38), the cynomologus reference genome (mf5), the rat reference genome (rn6), or the mouse reference genome (mm10)) after eliminating those having low quality scores. The resulting files containing the reads were mapped to the reference genome (BAM files), where reads that overlapped the target region of interest were selected and the number of wild type reads versus the number of reads which contain an insertion, substitution, or deletion was calculated.
(§5) The editing percentage (e.g., the “editing efficiency” or “percent editing” or “indel frequency”) is defined as the total number of sequence reads with insertions/deletions (“indels”) or substitutions over the total number of sequence reads, including wild type.
Guides in modified sgRNA format targeting human and/or cyno TTR were delivered to primary human hepatocytes and primary cyno hepatocytes as described in Example 1. […]

[2] = tested on: TTR; test: TTR editing in primary human hepatocytes treated with LNP formulated Spy Cas9 mRNA (SEQ ID NO: 2) and sgRNAs (Table 16); settings: LNP formulated Spy Cas9 mRNA (SEQ ID NO: 2) and sgRNA, 72 hours
Protocol: as §1
In general, the lipid nanoparticle components were dissolved in 100% ethanol with the lipid component of various molar ratios. The RNA cargos were dissolved in 25 mM citrate, 100 mM NaCl, pH 5.0, resulting in a concentration of RNA cargo of approximately 0.45 mg/mL. The LNPs were formulated with a lipid amine to RNA phosphate (N:P) molar ratio of about 4.5 or about 6, with the ratio of mRNA to gRNA at 1:1 by weight.
The LNPs were formed by microfluidic mixing of the lipid and RNA solutions using a Precision Nanosystems NanoAssemblr™ Benchtop Instrument, according to the manufacturer's protocol. A 2:1 ratio of aqueous to organic solvent was maintained during mixing using differential flow rates. After mixing, the LNPs were collected, diluted in water (approximately 1:1 v/v), held for 1 hour at room temperature, and further diluted with water (approximately 1:1 v/v) before final buffer exchange. The final buffer exchange into 50 mM Tris, 45 mM NaCl, 5% (w/v) sucrose, pH 7.5 (TSS) was completed with PD-10 desalting columns (GE). If required, formulations were concentrated by centrifugation with Amicon 100 kDa centrifugal filters (Millipore). The resulting mixture was then filtered using a 0.2 μm sterile filter. The final LNP was stored at −80° C. until further use.
as §2, §3, §4, §5
Lipid nanoparticle formulations of modified sgRNAs targeting human TTR and the cyno matched sgRNA sequences were tested on primary human hepatocytes and primary cyno hepatocytes in a dose response curve. Primary human and cyno hepatocytes were plated as described in Example 1. […]

[3] = tested on: off-target integration sites; test: Off-target oligo insertion based assay in primary human hepatocytes (Table 30); settings: TTR sgRNAs in PHH, 100 ng Cas9 mRNA, 25 nM sgRNA, 12.5 nM donor oligo
Protocol: Off-target analysis of sgRNAs targeting TTR was performed in primary human hepatocytes (PHH) as described in Example 5, with the following modifications. PHH were plated at a density of 33,000 cells per well on collagen-coated 96-well plates as described in Example 1. Twenty-four hours post plating, cells were washed with media and transfected using Lipofectamine RNAiMAX (ThermoFisher, Cat. 13778150) as described in Example 1. Cells were transfected with a lipoplex containing 100 ng Cas9 mRNA, immediately followed by the addition of another lipoplex containing 25 nM of the sgRNA and 12.5 nM of the donor oligo (0.3 μL/well). Cells were lysed 48 hours post-transfection and gDNA was extracted and analyzed as further described in Example 5. The data is graphically represented in FIG. 20.
Fewer sites were detected in PHH for every guide tested as compared to the HekCas9 cell line, with no unique sites detected in PHH alone.

Row | Molecule | Avg % Deletion [1] [%] | Avg % Edit [1] [%] | Avg % Insert [1] [%] | 12.5 ng mRNA, 3.9 nM sgRNA Avg % Edit [2] [%] | # Sites in PHH [3]
1 | B1 | 35.00 | 61.27 | 26.30 | 44.80 | 0
2 | B2 | – | – | – | – | 1
3 | B3 | 1.17 | 66.40 | 65.23 | 16.07 | 1
4 | B4 | 4.70 | 81.80 | 77.15 | 59.33 | 2
5 | B5 | 9.43 | 60.17 | 51.07 | 16.85 | 2
6 | B6 | – | – | – | 55.45 | 2
7 | B7 | – | – | – | 88.30 | 1
8 | B8 | – | – | – | 54.60 | 11
9 | B9 | 0.77 | 62.23 | 61.47 | 6.37 | 0
10 | B10 | – | – | – | 48.95 | 0
